From patent US20230331800A1
One block for each substance: values may come before it.

Key:
[1] = target: IL2 receptors on lymphocyte populations of human PBMCs (human) (UniProt P01589); assay: cell-based or functional assay
[2] = target: OT-I TCR (ovalbumin(257-264)-specific T cell receptor of OT-1 TCR transgenic mouse CD8+ T cells) (mouse); assay: cell-based or functional assay; conditions: scale: orders of magnitude higher potency than T5-IL2M6

Sequence of UniProt P01589 (P01589 22-272, chain 1 of 3): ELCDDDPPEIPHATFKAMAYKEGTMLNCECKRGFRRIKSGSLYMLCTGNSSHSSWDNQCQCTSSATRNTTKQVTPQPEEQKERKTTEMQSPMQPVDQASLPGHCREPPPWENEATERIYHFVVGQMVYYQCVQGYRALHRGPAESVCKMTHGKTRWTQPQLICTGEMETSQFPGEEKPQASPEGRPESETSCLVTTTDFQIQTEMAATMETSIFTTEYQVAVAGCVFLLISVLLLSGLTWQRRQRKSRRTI
Sequence of UniProt P01589 (P14784 27-551, chain 2 of 3, further chain): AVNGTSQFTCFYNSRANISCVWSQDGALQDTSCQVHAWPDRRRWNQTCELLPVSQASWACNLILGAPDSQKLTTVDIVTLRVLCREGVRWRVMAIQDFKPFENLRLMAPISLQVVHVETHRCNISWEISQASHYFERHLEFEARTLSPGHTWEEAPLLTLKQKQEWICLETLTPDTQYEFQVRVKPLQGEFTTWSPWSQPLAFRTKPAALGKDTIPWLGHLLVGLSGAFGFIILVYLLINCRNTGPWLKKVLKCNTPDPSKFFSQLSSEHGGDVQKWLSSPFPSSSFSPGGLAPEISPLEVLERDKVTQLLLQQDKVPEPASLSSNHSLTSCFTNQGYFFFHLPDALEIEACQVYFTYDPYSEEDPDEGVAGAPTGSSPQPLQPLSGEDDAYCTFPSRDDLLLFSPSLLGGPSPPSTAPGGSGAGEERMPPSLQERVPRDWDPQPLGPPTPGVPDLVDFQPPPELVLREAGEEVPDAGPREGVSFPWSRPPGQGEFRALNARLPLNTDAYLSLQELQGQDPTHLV
Sequence of UniProt P01589 (P31785 23-369, chain 3 of 3, further chain): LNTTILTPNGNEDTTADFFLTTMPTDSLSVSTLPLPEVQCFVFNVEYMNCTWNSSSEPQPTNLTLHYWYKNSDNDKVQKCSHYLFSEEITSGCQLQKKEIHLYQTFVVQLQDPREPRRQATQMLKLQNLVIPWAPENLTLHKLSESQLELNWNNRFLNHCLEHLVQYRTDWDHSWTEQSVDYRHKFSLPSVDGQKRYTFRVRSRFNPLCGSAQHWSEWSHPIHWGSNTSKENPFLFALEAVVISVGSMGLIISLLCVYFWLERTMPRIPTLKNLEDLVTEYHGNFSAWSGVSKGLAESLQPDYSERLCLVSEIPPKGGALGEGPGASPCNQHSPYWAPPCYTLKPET

potency in STAT5 phosphorylation on multiple lymphocyte populations (FIG. 12A-C), against IL2M0 (fold less potent than IL2M0) [1]: 100
Substance: IL2M2: Human IL2-(GGGGS)4-human IL-2Ra-GGGGS-Fc (Fc fusion)

potency in STAT5 phosphorylation on multiple lymphocyte populations (FIG. 14A-C), against IL2M4 (fold less potent than IL2M4) [1]: > 100
Substance: IL2M5: Fc-GGGGS-human IL2 (N88D, C125A) fusion (Fc fusion)

potency in inducing STAT5 phosphorylation in CD8+ OT-I T cells, against T5-IL2M6 [2]: 2
Substance: T4-IL2M6: OVA(257-264)-GCGGS-(GGGGS)2-mB2m-(GGGGS)4-mH2Kb-(GGGGS)4-Fc-(GGGGS)3-hIL2(H16A, F42A) (Fc fusion)
